Results as given in the nanobody polyreactivity screen of Harvey et al. (2022).

Assay: yeast display, Sf9 membrane polyspecificity reagent, FACS + sequencing; frameworks hold sequencing errors
Procedure, shortened: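 A synthetic nanobody library was expressed on Saccharomyces cerevisiae BJ5465 by galactose induction for 36–48 hours. The library was stained for 1 hour at 4 °C with 10% biotinylated, detergent-solubilized Sf9 membrane reagent and enriched with streptavidin microbeads before FACS. Low and high (top ~1%) gates were set on anti-HA fluorescence for expression and streptavidin fluorescence for reagent binding, and each polyreactivity label reflects the gate of origin.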

Row | Sequence | polyreactivity (PSR sort gate)
1 | QVQLVESWGGLVQAGGSLRLSCAASGSIFRRYAMGWYRQAPGKERELVAAISIGGRTYYADSVKGRFTISRDNAKNTVYFQMNSLKPEDTAVYYCAARESRSWGGGSWGQGTQVTVSS | high polyreactivity
2 | QVQLVESWGGLVQAGGSLRLSCAASGSIFYVNDMGWYRQAPGKERELVAAISSTGSTKYADSVKGRFTISRDNAKNTVYLQMNSLKPEDTAVSYCAKEPGHRFEFDYWGQGTQVTVSS | low polyreactivity
3 | QVQLVESWGGLVQAGGSLRLSCAASGSTFAQNTMGWYRQAPGKERELVATISDGGGSTYYADSVKGRFTISRDNAKNTVYLQMNSLKPEDTAVYYCNTDRFWPSYYWGQGTQVTVSS | low polyreactivity
4 | QVQLVESWGGLVQAGGSLRLSCAASGSTFGKYAMGWYRQAPGKERELVAAISYRGGRTFYADSVKGRFTISRDNAKNTVYLQMNSLKPEDTAVYYCAAYPGVSRGTGPRRYDYWGQGTQVTVSS | high polyreactivity
5 | QVQLVESWGGLVQAGGSLRLSCAASGSTFSPYAMGWYRQAPGKEREMVATINRGGGSTNYADSVKGRFTISRDNAKNTVYLQMNSRKPEDTAVYYCARVNAAVGYYYRYEYWGHGTQVTVSS | high polyreactivity
6 | QVQLVESWGGLVQAGGSLRLSCAASGSTFYRYAMGWYRQAPGKERELVAAISRSGGNTFYADSVKGRFTISRDNAKNTVYLQMNSLKQEDTAVYYCAAEAHLACYYRYYGGYGYDYWGQGTQVTVSW | high polyreactivity
7 | QVQLVESWGGLVQAGGSLRLSCAASGSTITAKAMGWYRQAPGKERELVAAITKSGGDTYYADSVKGRFTISRDNAKNTVYLQMNSLKPEDTAVYYCAARIRPYAYRSLYGYWGQGTQVTVSS | low polyreactivity
8 | QVQLVESWGGLVQAGGSLRLSCAASGSTMRYYAMGWYRQAPGKERELVAAISSRGGRTYYSDSVKGRFTISRDNAKNTVYLQMNSLKPEDTAVYYCAARARERYYWGQGNQVTVSS | high polyreactivity
9 | QVQLVESWGGLVQAGGSLRLSCADSGRTFTVNAMGWYRQAPGKETEFVAAISGRSGRTSYADSVKGRFTISRDNAKNTVYLQMNCLKPEDTAVYYCNASGGYSTGSRYDYWGQGTQVTVSS | high polyreactivity
10 | QVQLVESWGGLVQAGGSLRLSCADSGSIFGYYAMGWSRHAPGKETELVAAISSGGRTDYADSVKGRFTISRDNAKNTVYLQMNSRKQEDTAVYYCAALQRTGPYAGSSGYWGQGTQVTVSS | high polyreactivity
11 | QVQLVESWGGLVQAGGSLRLSCVPPDSSSLTILWDGIDRRLGKKGSWLPVLTSRGVGTYYADSVKGRFTNSRDNAKNTFYLQMNSMKPEDSAVYYCNARYEVFYRYDYWGHGTQVTVSS | low polyreactivity
12 | QVQLVESWGGLVQAGGSLRLTCAASGRILWFYSMGWYRQAPGKERELVAAISSSSGRTYYADSVKGRYTISRDNAKNTVSLQMNSLKPEDTAVYYCAATHAVARPLEYDYWGQGTQVTVSS | low polyreactivity
13 | QVQLVESWGGLVQAGGTLRLSCAASGGIFIDYTMGWYRQAPGKERELVAAITRGGSTYYADSVKGRFTISRDNAKNTVYLEMNSLIAEDTAVYYCAARANSPVGHNRFGYWGQGTQVTVSS | low polyreactivity
14 | QVQLVESWGGLVQAGGTLRLSCAASGRILYLNAMGWNRQAPGKEREFVAAISKSGGSTYYADSVKGRFTISRDNAMNSVYLQMNSLKPEDTAVYYCATRYRSAEYDFWGQGTQVTVSS | low polyreactivity
15 | QVQLVESWGGLVQAGLSLRLSCAASGIMGWYRQAPGKERELVDAITYTGDSTFYADSVKGRFTISRDNPKNTVYVQINSLKAEDTAVYDCATKYGTSNWYNTYYYWGQGTQVTVSS | low polyreactivity
16 | QVQLVESWGGVVQAGVSLRLSCAASGINFYSYAMGWYRQAPGKERELVAAISNNGGSTYADSVKGRFTISRDNAKNTVYLQMNSLKPEDTAVYYCAADPTGGVGFDGYYWGQGTQVSVSS | low polyreactivity
17 | QVQLVESWGRLVQAGGSLRLTCAASGFIFSSYAMGWYRQAPGKERELVAAISQSGGRTYYADSVKGRFTISRDNAKNTVYLQMNSLKPEDTAVYYCNTLYTIGAVYYWGQGTQVTVSS | high polyreactivity
18 | QVQLVESWGVLVQAGGSLRLSCAASGSIIVNYDMGWYRQARGKERELVAAITWGGGRTYYADSVKRRFTISRDNAKNSVYLQMNSLKPEDTAVYYCAADFSWVINPYEYCGQGTQVTVSS | low polyreactivity
19 | QVQLVETAAGLVKSGGSLPLSCAASGRIFKRYAMGWYRQAPGQARELVATINLSCGSTYYADSVKGRFTISRDNAKNTGYLQMNSRKPEDTAVYYCAYDAAGAPEGPYDYWGQGTQVTVSS | high polyreactivity
20 | QVQLVETAGGIVQAGGSLRLSCAASGRTNKYYAMGWYRQAPGKEREWVAVISWSGGSTYYADSVKGRFTISRDNAKNTVYLQMNSLKPEETAVYYCAARKRAQQGTRDHDYWGQGTQVTVSS | high polyreactivity
21 | QVQLVETGAGLVQAGGSLRLSCAASGRTFDDNAMGWSRQATGEVRELVAAISSTGSTNYADSVKGRFTISRDNAKNTVYFQMNSLKPEDTAVYYCNTDRGHERAFYYWGQGTQVTVSS | low polyreactivity
22 | QVQLVETGGCLVQAGGSLRLSCAASGSTFYLYAMGWNRQAPGKETDLVASISQSGGSTIYADSVKGRFTISRDNAKNTVYLHMNSLKPEDTAVYYFAAGAGYFRYPRSGVWYVTLYDYWGEGTQVTVSS | high polyreactivity

Row | Sequence | polyreactivity (PSR sort gate)
23 | QVQLVETGGGIVQAGGRLRLTCAASGSSFYSYAMGWYRQAPGKEMELVAAITTSGGNTLYADSVKGRFTISRDNAKNTVDLQMNSLKPEDTADYYCAADVFRGGDYEYDYWGQGTQVTVSS | low polyreactivity
24 | QVQLVETGGGIVQAGGSLRLSCAASGITFQSNTMGWYRQSPGKERELVAAITWTGGRTYYADSVKGRFTISRDNAKNTVYLQMNSLTPEDTAVYYCNADGYAICYNGKLDYWGQGTQVTVSS | high polyreactivity
25 | QVQLVETGGGLVHAGGSLRLSCAASGSIFQGHAMGWYRQAPGKERELVAAISRNGGRTYYADSVKGRFTISRDNAKNTVYLQMNSLKPEDTAVYYCAAYHNVEYDYWGQGTQVTVSS | high polyreactivity
26 | QVQLVETGGGLVHAGVSLRLSCAASGSILSLNAMGWYRQAPGKERELVAVISNCGGSTYYADSVKGRFTISRDNAKNTVYFQMKSLNPEDTAVYYCAVALKYQRRYYYWGQGTQVTVSS | high polyreactivity
27 | QVQLVETGGGLVQAGCSLRLSCASSGFIFVRNAMGRYRQAPGIERELVATINSGGGTNYADSVKWRFTISRDNAKNSVYFQMNSLKPDDTAVYYCAAGQTSPERYGLGYWGQGSQVTVSS | low polyreactivity
28 | QVQLVETGGGLVQAGGSLRISCAASGFTFSSYVMGWYRQAPGKERELVAAITRGGGSTYYADSVKGRFTISRDNAKNTVYLQMNRLKPEDTAVYYCAARGWRYSYTSVLFDYCGQGTQVTVSS | high polyreactivity
29 | QVQLVETGGGLVQAGGSLRISCAASGIIFRNYAKGWYTQAPGKERELVADISWSGGTTYYADSVKGRFTISRDNEKHTVYLQMNSLKPEDTAVYYCAASSYRRQYGYWGQGTQVTVSS | high polyreactivity
30 | QVQLVETGGGLVQAGGSLRLRCAASGSIFVPYTMGWYRQAPGKERELVASISYSGGTTYYADSEKGRFTISRDNAKNTVYLQMNSLKPEDTAVYYCAADWDESYSYRRYRHYDYWGQGTQLTVSS | low polyreactivity
31 | QVQLVETGGGLVQAGGSLRLSCAASARIFLGYTMGWYRKAPGKEMELVASITWSGGSTYYADSVKGRFTISRDNAKNTVYLQMNRLKPDVTAVYYCNAVYWVARGRYDYWGQGTQVTVSS | high polyreactivity
32 | QVQLVETGGGLVQAGGSLRLSCAASGFIFAYNAMGWYRQAPGKERELVAAISWSGGSTYYADSVKGRFTISRDNAKITVYLQMNCLKPEDTAVYYCNAVSYFGARYDYWGQGTQVTVSS | high polyreactivity
33 | QVQLVETGGGLVQAGGSLRLSCAASGFIFSTYAMGWSRQAPGKERELVAAISWSGGRTNYADSVKGRFTISRDHAKNTVYLQMNSLKPEDTAVYYCAVGGERGARIGSNHRGSRYDYWGQGTQVTVSS | high polyreactivity
34 | QVQLVETGGGLVQAGGSLRLSCAASGFTFGANVMGWYRPAPGKESELVAGITRSGDSTYYADSVKGRFTISRDNAKNTVYLQMNILKPEDTAVYYCAADVYDGEYILDYDYWGQGTQVTVSS | low polyreactivity
35 | QVQLVETGGGLVQAGGSLRLSCAASGFTFKLYAMGWYRQAPGKERVLVAAISSSGGRTYYADSVKGRFTISRDNAKNTVYLQMNSLKPEDTAVYYCNAVRTVNDYHYDYWGQGTQVTVSS | high polyreactivity
36 | QVQLVETGGGLVQAGGSLRLSCAASGFTFRRYTMGWYRQAPGKERELVAAISGRGGRTYYADSVKGRFTISRDNAKNTVDLQMNSLKPEDTAVYYCAADTPYCQSSKYDYWGQGNQVTVSS | high polyreactivity
37 | QVQLVETGGGLVQAGGSLRLSCAASGFTFTVYATGWYRQAPGKERELVAAIRWSGGSTSYADSVKRRFTISRDNAKNTVYLQMNSLKPEDTAVYYCNARISDAHYQSNYFLVLYDYWGQGTQVTVSS | low polyreactivity
38 | QVQLVETGGGLVQAGGSLRLSCAASGFTFYGYAMGWYRQAPGKERELVAAISSSGGRTYYADSVKGRFTISRDNAKNTVYLQMNSLKPEDTAVYYCAVDYYGKVGDDYLGQGTQVTVSS | low polyreactivity
39 | QVQLVETGGGLVQAGGSLRLSCAASGFTYRRYAMGWYRQAPGKERELVAAINWNGDSTYYADSVKGRFTISRDNAKNTVYLQMNSLKPEDTAVYYCNAGWYGGRYSKFDYWGQGTQVTVSS | high polyreactivity
40 | QVQLVETGGGLVQAGGSLRLSCAASGGIFGRNAMGWYRQAPGKERELVASISKSGGSTYYADSVKGRFTISRDNAKNTVYLQMNSLKPEDTAVYYCAARYSYFNWDNYYWGQGTQVTVSS | high polyreactivity
41 | QVQLVETGGGLVQAGGSLRLSCAASGGIFSYAMVWYRQAPGKEMELVADINSDGSTTYADSVKGRFTISRDNAKNTVYLQMNRLKPEDTAVYFCAVDVSVNWPLLERYEYWGQGSQVTVSS | low polyreactivity
42 | QVQLVETGGGLVQAGGSLRLSCAASGIIFREYAMGWYRQAPGKEMELVAAITRSGGSTNYADSVKGRFTISRDNAKNTVYLLMNSLKPEDTAVYYCASDYQRNDFRWYDYWGQGTLVTVSS | low polyreactivity
43 | QVQLVETGGGLVQAGGSLRLSCAASGITFWYYAMGCDRQAPGKERELVAVISRGGSTYYADSVKGRFTISRDNAKNTVYLQMNSLKPEDTAVYYCAARPRWYTYNRQEYDYWGQGTQVTLSS | high polyreactivity
